US20260274993A1

Tests used:
[1] = target: VH4-34 endogenously expressed by cell line HBL-1; experiment: flow cytometry, EC50 of % parent (APC), HBL-1 cells endogenously expressing VH4-34; curve in FIG. 5A rises to about 57 % at Log M about -7.2 without a plateau
[2] = target: VH4-34 endogenously expressed by cell line GA-10; experiment: flow cytometry, EC50 of % parent (APC), GA-10 cells endogenously expressing VH4-34; curve in FIG. 5A rises to about 66 % at Log M about -7.2 without a plateau

B1: D011-1E11-5T2.IgG2a (antibody, V domains shown)
VH: QVQLVQSGAEVKKPGASMKVSCKASGYSFTGSTMNWVRQAPGQGLEWMGWINPYNGGTNYAQKFQGRVTMTRDTSISTAYMELSRLRSDDTAVYYCASRGKNGYDGRDFDCWGQGTLVTVSS
VL: EIVLTQSPATLSLSPGERATLSCKSTKSLLNSGGFSYLDWYQQKPGQAPRLLIYLVSNRFTGIPARFSGSGSGTDFTLTISSLEPEDFAVYYCFQSNYFPFTFGQGTKLEIKR
- EC50 [1]: 240 nM
- EC50 [2]: 1.52 nM
